Measurements: IntAct's records for PubMed 18020948

B1: Integrin alpha-L (Homo sapiens), P20701 (parent)
chain: MKDSCITVMAMALLSGFFFFAPASSYNLDVRGARSFSPPRAGRHFGYRVLQVGNGVIVGAPGEGNSTGSLYQCQSGTGHCLPVTLRGSNYTSKYLGMTLATDPTDGSILACDPGLSRTCDQNTYLSGLCYLFRQNLQGPMLQGRPGFQECIKGNVDLVFLFDGSMSLQPDEFQKILDFMKDVMKKLSNTSYQFAAVQFSTSYKTEFDFSDYVKRKDPDALLKHVKHMLLLTNTFGAINYVATEVFREELGARPDATKVLIIITDGEATDSGNIDAAKDIIRYIIGIGKHFQTKESQETLHKFASKPASEFVKILDTFEKLKDLFTELQKKIYVIEGTSKQDLTSFNMELSSSGISADLSRGHAVVGAVGAKDWAGGFLDLKADLQDDTFIGNEPLTPEVRAGYLGYTVTWLPSRQKTSLLASGAPRYQHMGRVLLFQEPQGGGHWSQVQTIHGTQIGSYFGGELCGVDVDQDGETELLLIGAPLFYGEQRGGRVFIYQRRQLGFEEVSELQGDPGYPLGRFGEAITALTDINGDGLVDVAVGAPLEEQGAVYIFNGRHGGLSPQPSQRIEGTQVLSGIQWFGRSIHGVKDLEGDGLADVAVGAESQMIVLSSRPVVDMVTLMSFSPAEIPVHEVECSYSTSNKMKEGVNITICFQIKSLIPQFQGRLVANLTYTLQLDGHRTRRRGLFPGGRHELRRNIAVTTSMSCTDFSFHFPVCVQDLISPINVSLNFSLWEEEGTPRDQRAQGKDIPPILRPSLHSETWEIPFEKNCGEDKKCEANLRVSFSPARSRALRLTAFASLSVELSLSNLEEDAYWVQLDLHFPPGLSFRKVEMLKPHSQIPVSCEELPEESRLLSRALSCNVSSPIFKAGHSVALQMMFNTLVNSSWGDSVELHANVTCNNEDSDLLEDNSATTIIPILYPINILIQDQEDSTLYVSFTPKGPKIHQVKHMYQVRIQPSIHDHNIPTLEAVVGVPQPPSEGPITHQWSVQMEPPVPCHYEDLERLPDAAEPCLPGALFRCPVVFRQEILVQVIGTLELVGEIEASSMFSLCSSLSISFNSSKHFHLYGSNASLAQVVMKVDVVYEKQMLYLYVLSGIGGLLLLLLIFIVLYKVGFFKRNLKEKMEAGRGVPNGIPAEDSEQLASGQEAGDPGCLKPLHEKDSESGGGKD
partner: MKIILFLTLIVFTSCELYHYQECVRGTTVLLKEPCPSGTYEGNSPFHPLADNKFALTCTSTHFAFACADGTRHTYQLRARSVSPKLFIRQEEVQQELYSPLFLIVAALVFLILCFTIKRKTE

Variants of: B1
Details: with ns7a_sars ns7a

**Q.** How did the “effect of a mutation on the interaction” value turn out when K288C;K293C was run?
**A.** increasing interaction strength
